Assay: yeast display, Sf9 membrane polyspecificity reagent, FACS + sequencing; frameworks hold sequencing errors
Procedure, shortened: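 Using colony PCR, genes from sorted yeast display clones were amplified, then sequenced on MiSeq at 2 × 250 and filtered by CDR length. The clones had been stained with 10% biotinylated, detergent-solubilized Sf9 membrane reagent for 1 hour at 4 °C and sorted by FACS into low and high (top ~1%) gates on anti-HA and streptavidin fluorescence. Polyreactivity labels come from the gate of origin.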

Sequence	polyreactivity (PSR sort gate)
QVQLVESGGGLVHAGCSLRLSCSASGRISGYAMGWYRQAPGKERELVAAISKSAARTYYADSVKGRFTISRDNAKNTVYLQMNSLKAEDTAVYYCAADKPYRYDYWGQGTQVTVSS	high polyreactivity
QVQLVESGGGLVQAGGSLRLSCAASGRTFSAYAMGWYRQAPGKERELVAAISTNVGSTYYADSVKGRFTISRDTAKNTVYLQMNSLKPEDTAVYYCAKSWTLSGWNYYYWGQGTQVTVSS	high polyreactivity
QVQLVESGGGLVQAGGSLRLSCAASGYTFDTKAMGWYRLAPGKERELVAAISRIGGRTYADSVKGRFTISRDNAKNTVYLQMNSLKPEDTAVYYGAADTTWYPYGYDSWGQGTPVTVSS	low polyreactivity
QVQLVESGGGLVQAGGSLRLSCAASGFIFRLYAMGWYRQAPGKERELVAAISGRGGNTYYADSVKGRFTISRDNAKNTVYLQMNSLKPEDTAVYYCAADRPGTGYSDYDYWGQGTQVTVSS	high polyreactivity
QVQLVESGGGLVQAGGSLRLSCAAAGRTFGDYDMGWYRQAPGKERELVAAITSDGTTYYADYVKGRFTISGDNAKNTVYLQMNSLKPEDTAVYYCAADYWYVSWYDYWGHGTQVTVSS	low polyreactivity
QVQLVESGGGLVQAGGSRRLSCAASGNTFYANVMGWYRQAPGKERELVASITWSGGSTYYADSVKGRFTISRDNAKNTVYLQMNSLKPEDTAVYYCATSGDRLVWGQGTQVTVSS	low polyreactivity
QVQLVESGGGLVQAGGSLRLSCAASGRTFSYNTMGWYRQAPGKERELVASISGSGGRTYYADSVKGRFTISRDNAKNTVYLQMNSLKPEDTAVYYCAARRYSRDYDYWGQGTQVTVSS	high polyreactivity
QVQLLESGGGLVQAGGSLRLSCAASGSIFDGYGMGWYRQAPGKERELVAGITSGGSTYYADSVKGRFTISRDTAKNTVYLQMNSLKPEDTAVYYCATVVRYSNARGDYWGQGTQVTVSS	low polyreactivity
QVQLVESGGGLVQAGGSLRLSCAASGSTFVPNAMGWYRQAPGKERELVADITSGGITNYADSVKGRFTISRDNAKNTVYLQMISLNPEDTGVYYCAVLYYILAPGYDYWGQGTLVTVSS	low polyreactivity
QVQLVESSGGLVQAGGSLRLSCAASGSIFPSNAMGWYRQAPGKERELVARITGGGGNTYYADSVKGRFTISRDNAKNTVYLQMNSLKPEDTAVYYCAADYTNWKTGSNEMYYWGQGTQVTVSS	low polyreactivity
QVQLVESGGGLVQAGGSLRLSCAASGRISKRYTMGWYRQAPGKERELVAAITNSGGTTYYADSVKGRFTISRDNAKNTVYLQMNSLKPEDTAVYYCNKPYGAETAHREFDYWGQGTQVTVSS	low polyreactivity
QVQLVEAGGGLVQAGGSLRLSGAASGSIFDYNAMGWYRQAPGKERELVASISYSGGSTYYADSVKGRFTISRDTAKNTVYLQMNSLKPEDTAVYYCNARFYWRWHTAYDYWGQGTQVTVSS	high polyreactivity
QVQLVESGGGLVQAGGSLRLSCAASGFTFTRYAMGWYRQAPGKERELVAAISRIGGSTYYADSVKGRFTISRDNAKNTVYLQMNSLKPEDTAVYYCAASKVPSYDYWGQGTQVTVSS	high polyreactivity
QVQLVESGGGLVQAGGSLRLSCAASGITFLYYAMGWYRQAPGQERELVAAITSSGGRTYYADSVKGRFTISRDNAKNTVYLQMNSLKPEDTAVYYCAADSRTYNGGYYWGQGTQVTVSS	high polyreactivity
QVQLVESGGGLVQAGGSLRLSCAASGRIFYEYAMGWYRQAPGKERELVAAITRGDSTYYADSVKGRCTISRDNAKNTVYLQMNSLKPEDTAVYYCNAGVFDYSGDSNYWGQGTQVTVSS	low polyreactivity
QVQLVESGGGLVQAGGSLRLSCAASGSTLGVNAMGWYRQAPGKEREFVSSITGRVGNTYYADSVKGRFTISRDNAKNTVYLQMNSLKPEDTAVYYCAARVKYTRYQSILDYYYWGQGTQVTVSS	high polyreactivity

Sequence	polyreactivity (PSR sort gate)
QVQLVESGGGLVQAGGSLRLSCAASGSTLKYYTMGWYRQAPGKERELVAAISWSGGRTYYADSVKGRFTISRDNAKNTVYLQMNSLKPEDTAVYYCNARRTFPRYDRKYESWGQGTQVTVSS	high polyreactivity
QVQLVESGGGLVQAGGSLRLSCAASGSIFYTNAMGWYRPAPGKERELVAAIRWSGGRTYYADSVKGRFTISRDNAKNTVYLQMNSLKPEDTAVYYCNVVVRYPSAYDYWGQGTQVTVSS	high polyreactivity
QVQLVESGGGLVQAGGSLRLSCAASGFIFYRYAMGWYRQAPGKERELVAAISGSGGRTYYADSVKGRFTISRDNAKNTVYLQMNSLKPEDTAVYYCAADKQAYVTDDYWGKGTQVTVSS	high polyreactivity
QVQLVESGGGLVQAGGSLRLICAASGSTTFYAKGWYRPAPGKEWELVATISSSAGSTYYADSVKGRFTISRDNAKNNVYLEMNSLIPEDTAVFYCDAKYSQLRQYYRLDYWGQGTQVTVSS	low polyreactivity
QVQLVESGGGLVQAGGSLRLSCAASGRTFLLYAMGWYRQAPGKERELVARITGRGGRTYYADSVKGRFTISRDNAKNTVYLQMNSLKPEDTAVYYCNKRYPLGTEYYYWGQGTQVTVSS	high polyreactivity
QVQLVESGGGLVQAGGSLRLICAASGSIFTPYVMGWYRQAPGKEREFVAAITQRGGRTYYADSVKGRFTISRDNAKNTVYLQMNSLKPEDTAVYYCAKTSVSRTYHRSAYDYWGQGTQVTVSS	high polyreactivity
QVQLVESAGGLVQAGGSLRLSCAASGRIYGIYAMGWYRQAPGKERELVASITDGTITNYADSVKGRFTISRDNAKNTVYLQKNSLKPEDTAVYYCAAGTQAHAYVVRPIEMDYWGQGTQVTVSS	low polyreactivity
QDQLVESGGGLVQAGGSLRLSCAASGITIWRYAMGWYRQAPGKERELVAAISWSGSRTYYADSVKGRFTISRDNAKNTVYLQMNSLKPEDTAVYYCAAAFDLWITITGFDYWGQGTQVTVSS	low polyreactivity
QVQLVESGGALVQAAGSLRLSCAASGRTFRRNTMGWYRQAPGKERELVAAISSSGSSTYYADSVKGRFTISRDNEKNTVYLQMNSLKPEDTAVYYCAATGSRRFGYWGQGTQVTVSS	high polyreactivity
QVQLEESGRGLVQAGGSLRLSCAASGRTFAYYAMGWYRQAPGKERELVAAITSGGSTNYADSVKGRFTISRDNAKNTVYLQMNSLKPEDTAVYYCNARFRWPWSTYDYWGQGTQVTVSS	high polyreactivity
QVQLVESGGGLVQAGGSLRLSCAASGITFGPYAMGWYRQAPGKERELVAAISYSGGRTYYADSVKGRFTISRDNAKNTVYLQMNSLKPEDTAVYFCARRYGYFGYEYDYWGQGTQVTVSS	high polyreactivity
QVHLVESGGGLVQAGGSLRLSCAASGIIFYYNAMGWYRQAPGKERELVAVISSAGNTNYADSVKGRFTISRDNAKNTVYLQMNCLKPEDTAVYYCAAGTISRIDERNYFKMDYWGQGTQVTVSS	low polyreactivity
QVQVVESGGGLVQAGGSLRLSCAASGSTFRYYAMGWYRQAAGKERELVASITVSVGRTYYADSVKGRFTISRDYAKNTVYLQMNILKPEDTAVYYCAAPRGRLVRPPKYYYWGQGTQLTVSS	high polyreactivity
QVQLVESGGGLVQAGGSLRLSCAASGRTFWWYAMGWYRQAPGKERELVADINGSGGSTYYADSVKGRFTISRDNAKHTVYLQMNSLKPEDTAVYYCAADYYRYIHSVVYSIYDYWGQGTQVTVSS	low polyreactivity
QVQLVESAGGLVLAGGSLRLSCAASGYTVVRYAMGWYRQEPGKERELVAAISRSGGSTYYADSVKGRFTISRDNANNTVYLQMNSLNPEDTAVYYCNAYPYSYYDYDYWGQGTQVTVSS	high polyreactivity
QVQLVESGGGVVQAGGSLRLSCAASGRTFPGNAMGWYRQAPGKERELVASITWSTGSTYYADSVKGRFTISRDNAKNTVYLQMNSLKPEDTAVYYCAADQSVRSYQYSVHRGYWGQGTQVTVSS	high polyreactivity

Source: the nanobody polyreactivity screen of Harvey et al. (2022)
